Measured values from patent US12168686.

Assays:
[1] = biological target: soluble DR5-Fc fusion protein (UniProt O14763); test: BLI (ForteBio Octet), biotin-labeled DR5-Fc on streptavidin sensors, analyte 15.4 nM-123.5 nM
[2] = biological target: soluble DR5-Fc fusion protein (UniProt O14763); test: BLI (ForteBio Octet), biotin-labeled DR5-Fc on streptavidin sensors
[3] = biological target: soluble DR5-Fc fusion protein (UniProt O14763); test: BLI (ForteBio Octet), ratio of kon against TRAIL-Trimer
[4] = biological target: soluble DR5-Fc fusion protein (UniProt O14763); test: BLI (ForteBio Octet), ratio of koff against TRAIL-Trimer

soluble DR5-Fc fusion protein, sequence (O14763 56-182 limits assumed): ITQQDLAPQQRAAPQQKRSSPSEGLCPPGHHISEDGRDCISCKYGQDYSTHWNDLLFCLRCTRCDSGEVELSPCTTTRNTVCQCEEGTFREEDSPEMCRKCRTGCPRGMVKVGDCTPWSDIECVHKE
native TRAIL (recombinant soluble human TRAIL from E. coli), sequence (P50591 114-281 limits assumed): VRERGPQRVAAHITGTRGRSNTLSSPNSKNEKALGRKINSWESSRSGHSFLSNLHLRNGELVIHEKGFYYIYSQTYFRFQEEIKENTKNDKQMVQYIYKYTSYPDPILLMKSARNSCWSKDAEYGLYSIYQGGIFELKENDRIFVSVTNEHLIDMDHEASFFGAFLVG

Kd [1]: 0.263 nM
koff [2]: 4.6e-05 s⁻¹
kon [2]: 175000 M⁻¹ s⁻¹
fold faster association than TRAIL-Trimer [3]: 2 fold
fold faster dissociation than TRAIL-Trimer [4]: > 460 fold
Substance: native TRAIL (recombinant soluble human TRAIL from E. coli) (from UniProt P50591 114-281) (ligand)
